This note sets out measurements from doi:10.1101/2025.05.20.653754 (bioRxiv, 2025).

In series [1] the target is maize DUR3 (ZmDUR3) with a C-terminal Strep-tag (Zea mays L.). The experiment in a line: cryo-EM structure.
In series [2] the target is full-length Physcomitrium patens DUR3 (PpDUR3) fused with C-terminal GFP (Physcomitrium patens). The experiment in a line: SEC.
The target of series [3] is full-length maize DUR3 fused with C-terminal GFP (Zea mays L.). The experiment in a line: SEC. Background: In gel filtration, larger molecules generally elute earlier.
The series “SEC” concerns the molecule itself. The experiment in a line: SEC.

For the molecule “maize DUR3 (ZmDUR3) with a C-terminal Strep-tag (natural protein)”, the stoichiometry N in series [1] was 4.
For the molecule “full-length Physcomitrium patens DUR3 (PpDUR3) fused with C-terminal GFP (natural protein)”, the stoichiometry N in series [2] was 4.
In the case of “full-length maize DUR3 fused with C-terminal GFP (natural protein)”, the stoichiometry N in series [3] is 4.

B1: full-length Arabidopsis thaliana DUR3 fused with C-terminal GFP (natural protein, UniProt F4KD71 1-704, looked up)
chain: MATCPPFDFSTKYYDGDGGCQRQSSFFGGTTVLDQGVGYAVILGFGAFFAVFTSFLVWLEKRYVGARHTSEWFNTAGRNVKTGLIASVIVSQWTWAATILQSSNVAWQYGVSGPFWYASGATIQVLLFGVMAIEIKRKAPNAHTVCEIVKARWGTATHIVFLVFCLATNVVVTAMLLLGGSAVVNALTGVNLYAASFLIPLGVVVYTLAGGLKATFLASYVHSVIVHVALVVFVFLVYTSSKELGSPSVVYDRLKDMVAKSRSCTEPLSHHGQACGPVDGNFRGSYLTMLSSGGAVFGLINIVGNFGTVFVDNGYWVSAIAARPSSTHKGYLLGGLVWFAVPFSLATSLGLGALALDLPISKDEADRGLVPPATAIALMGKSGSLLLLTMLFMAVTSAGSSELIAVSSLFTYDIYRTYINPRATGRQILKISRCAVLGFGCFMGILAVVLNKAGVSLGWMYLAMGVLIGSAVIPIAFMLLWSKANAFGAILGATSGCVFGIITWLTTAKTQYGRVDLDSTGKNGPMLAGNLVAILTGGLIHAVCSLVRPQNYDWSTTREIKVVEAYASGDEDVDVPAEELREEKLRRAKAWIVKWGLVFTILIVVIWPVLSLPARVFSRGYFWFWAIVAIAWGTIGSIVIIGLPLVESWDTIKSVCMGMFTNDRVMKKLDDLNHRLRALTMAVPEAEKIYLLELEKTKKNDEEG
Regarding B1, in the series “SEC”, the “stoichiometry N” value is 4.

B2: full-length rice DUR3 (OsDUR3) fused with C-terminal GFP (natural protein, Oryza sativa, UniProt Q7XBS0 1-721, looked up)
chain: MASGVCPPAELGFGAEYYSVVNGVCSRAGSYFGGRPVLTQAVGYAVVLGFGAFFALFTSFLVWLEKRYVGSQHTSEWFNTAGRSVKTGLIASVIVSQWTWAATILQSSNVAWQYGVSGPFWYASGATIQVLLFGVMAIEIKRKAPNAHTVCEIVRARWGTPAHLVFLTFCLLTNVIVTAMLLLGGSAVVNALTGVNVYAASFLIPLGVVVYTLAGGLKATFLASYIHSVVVHAVLVVFVFLVYTSSSKLGSPRVVYDRLMAVASAARDCSADLSRNGQACGPVAGNFKGSYLTMLSSGGLVFGIINIVGNFGTVFVDNGYWMSAIAARPSSTHKGYLLGGLVWFAVPFSLATSLGLGALALDLPLTAAEAAKGLVPPATATALMGKSGSVLLLTMLFMAVTSAGSAELVAVSSLCTYDIYRTYLNPGASGKQILRVSRAVVLGFGCFMGVLAVVLNVAGVSLGWMYLAMGVIVGSAVIPIALLLLWSKANAVGAMGGAVSGCALGVAVWLTVAKVQYGRVNLDTTGRNAPMLAGNLVSILVGGAVHAACSLLRPQHYDWGTSREMITTVESVHAALDDELKEERLVHAKRWIVRWGLVFTAVIVVAWPALSLPARRYSLGYFTLWAAVAIAWGTVGSVVIILLPVAESWTTITKVCAGMFTNDAVYDRLDDVNLRLRAIMGAMPEAEKRYRQLHETEMHPAGTHPANDDDDDNNNNQMMHS
In the case of B2, the “stoichiometry N” value in the series “SEC” was 4.

As a reminder, the stoichiometry N is the number of molecules, sites or subunits per partner or assembly.
